Results reported in patent US20250333514A1 (CDR LIFE, published 2025).
Like-named read-outs stand apart in the source and are kept apart here.

Tests used:
Assay in all cases: SPR (Biacore 8K), pMHC captured, Fab-scFv analyte
[1] = biological target: HLA-A*02:01 loaded with PRAME peptide L3A (human, Complex captured as in Example 5 (biotinylated ligand); biotin site or tag not stated, not in the letters.)
Method: (§1) Recombinantly produced hits in Fab-scFv format, as described in Example 4, were evaluated for their ability to bind HLA-A*02:01/PRAME antigen. Binding characterization was performed by surface plasmon resonance (SPR) using a Biacore™ 8k (Cytiva) device. Briefly, 3000 RU of Biotin CAPture reagent (Cytiva) was immobilized on a Series S Sensor Chip CAP (Cytiva) and the biotinylated ligand HLA-A*02:01/PRAME (SEQ ID NO: 68) was diluted in HPS-EP+ running buffer (TEKNOVA) and captured for 300 s at a flow rate of 2 μL/min at flow cell 2 resulting in a ligand capture level of >100 RU. Subsequently, at least three consecutive analyte injections were performed at suitable concentrations applying the single-cycle-kinetics mode at a flow rate of 30 μL/min with an association time of 90 s and the dissociation time set to >400 s. The chip surface was regenerated according to the manufacturer's instructions. After reference flow cell signal and blank injections subtraction, the data was fit to a 1:1 Langmuir binding model to determine the association rate constant kₐ and dissociation rate constant kd and calculate the equilibrium dissociation constant KD (kd/kₐ), also denoted as affinity, using the Biacore™ Insight Evaluation software.
(§2) The molecular recognition profile of monovalent (Fab-scFv) antigen binding molecules M3076 and M3287 for HLA-A*02:01/PRAME binding (equivalent bivalent (Fab-(scFv)₂) antigen binding molecules are M3167 and M3292, respectively) were determined by SPR measurements with HLA-A*02:01 complexes loaded with PRAME peptide or peptides containing a single amino acid substitution to alanine, arginine or aspartic acid. The kinetic parameters for each HLA-A*02:01 complex loaded with a peptide was determined by SPR, according to the previously described method in Example 5.

[2] = biological target: HLA-A*02:01 loaded with PRAME peptide L9A (human, Non-covalent three-chain complex; biotinylated for capture on the chip, site or tag of biotinylation not stated.)
Method: as §1, §2

[3] = biological target: HLA-A*02:01 loaded with PRAME peptide I7A (human, Complex captured as in Example 5 (biotinylated ligand); biotin site or tag not stated, not in the letters.)
Method: as §1, §2

[4] = biological target: HLA-A*02:01 loaded with PRAME peptide Q4A (human, Complex captured as in Example 5 (biotinylated ligand); biotin site or tag not stated, not in the letters.)
Method: as §1, §2

[5] = biological target: HLA-A*02:01 loaded with PRAME peptide L2A (human, Complex captured as in Example 5 (biotinylated ligand); biotin site or tag not stated, not in the letters.)
Method: as §1, §2

[6] = biological target: T1, HLA-A*02:01/PRAME antigen (recombinant, … on HLA-A*02:01) (human, Complex biotinylated for SPR capture; site of biotin and any tag not stated, not in the letters.)
T1 construct: also called PRAME target; pMHC
Method: as §1, §2

[7] = biological target: HLA-A*02:01 loaded with PRAME peptide L6A (human, Complex captured as in Example 5 (biotinylated ligand); biotin site or tag not stated, not in the letters.)
Method: as §1, §2

[8] = biological target: HLA-A*02:01 loaded with PRAME peptide G8A (human, Non-covalent three-chain complex; biotinylated for capture on the chip, site or tag of biotinylation not stated.)
Method: as §1, §2

[9] = biological target: HLA-A*02:01 loaded with PRAME peptide H5A (human, Complex captured as in Example 5 (biotinylated ligand); biotin site or tag not stated, not in the letters.)
Method: as §1, §2

[10] = biological target: HLA-A*02:01 loaded with PRAME peptide S1A (human, Complex captured as in Example 5 (biotinylated ligand); biotin site or tag not stated, not in the letters.)
Method: as §1, §2

[11] = biological target: HLA-A*02:01 loaded with PRAME peptide S1R (human, Non-covalent three-chain complex; biotinylated for capture on the chip, site or tag of biotinylation not stated.)
Method: as §1, §2

[12] = biological target: HLA-A*02:01 loaded with PRAME peptide H5R (human, Non-covalent three-chain complex; biotinylated for capture on the chip, site or tag of biotinylation not stated.)
Method: as §1, §2

[13] = biological target: HLA-A*02:01 loaded with PRAME peptide Q4R (human, Non-covalent three-chain complex; biotinylated for capture on the chip, site or tag of biotinylation not stated.)
Method: as §1, §2

[14] = biological target: HLA-A*02:01 loaded with PRAME peptide L2R (human, Non-covalent three-chain complex; biotinylated for capture on the chip, site or tag of biotinylation not stated.)
Method: as §1, §2

[15] = biological target: T1, HLA-A*02:01/PRAME antigen (recombinant, …); remark: listed apart in the source
Method: as §1, §2

[16] = biological target: HLA-A*02:01 loaded with PRAME peptide L6R (human, Non-covalent three-chain complex; biotinylated for capture on the chip, site or tag of biotinylation not stated.)
Method: as §1, §2

[17] = biological target: HLA-A*02:01 loaded with PRAME peptide L3R (human, Non-covalent three-chain complex; biotinylated for capture on the chip, site or tag of biotinylation not stated.)
Method: as §1, §2

Kd [1] [nM]	Kd [2] [nM]	Kd [3] [nM]	Kd [4] [nM]	Kd [5] [nM]	Kd [6] [nM]	Kd [7] [nM]	Kd [8] [nM]	Kd [9] [nM]	Kd [10] [nM]	Kd [11] [nM]	Kd [12] [nM]	Kd [13] [nM]	Kd [14] [nM]	Kd [15] [nM]	binding result [16]	Kd [17] [nM]	binding result [12]	Binder
0.19	1.7	31	0.18	0.07	0.08	15	0.77	3	0.09	0.08	93	0.08	0.04	0.08	no binding	1	–	M3076 (bispecific antibody, Humanized variant of M2638, monovalent Fab-scFv; bivalent equivalent is M3167) heavy: EVQLVESGGGLVQPGGSLRLSCAASGFTFSTYAMNWVRQAPGKGLEWVGRIRSKYNNYATYYADSVKGRFTISRDDSKNTLYLQMNSLRAEDTAVYYCVRHGNFGDSYVSWFAYWGQGTLVTVSSASTKGPSVFPLAPSSKSTSGGTAALGCLVKDYFPEPVTVSWNSGALTSGVHTFPAVLQSSGLYSLSSVVTVPSSSLGTQTYICNVNHKPSNTKVDKKVEPKSCGGGGSDIQMTQSPSSLSASVGDRVTITCRSSQSVYNNLLGWYQQKPGKAPKLLIYSASTLASGVPSRFSGSGSGTDFTLTISSLQPEDFATYYCQGTYYNGDWYYPFGCGTKVEIKGGGGSGGGGSGGGGSGGGGSQVQLVESGGGSVQPGRSLRLSCAASGFDFSTYGVSWVRQAPGKCLEWIGYIDPVYGSTHYADSVKGRFTISRDNSKNTLYLQMNSLRAEDTASYYCVRDLYAGSSGYYMIYSLWGQGTSVTVSS light: QAVVTQEPSLTVSPGGTVTLTCGSSTGAVTTSNYANWVQQKPGKSPRGLIGGTNKRAPGVPARFSGSLLGGKAALTISGAQPEDEADYYCALWYSNHWVFGGGTKLTVLGQPKAAPSVTLFPPSSEELQANKATLVCLISDFYPGAVTVAWKADSSPVKAGVETTTPSKQSNNKYAASSYLSLTPEQWKSHRSYSCQVTHEGSTVEKTVAPTECS
1.6	18	100	1.2	0.62	0.57	67	9.8	16	1.1	0.57	–	0.49	0.31	0.57	no binding	9.2	no binding	M3287 (bispecific antibody, Humanized variant of M2638, monovalent Fab-scFv; bivalent equivalent is M3292) heavy: EVQLVESGGGLVQPGGSLRLSCAASGFTFSTYAMNWVRQAPGKGLEWVGRIRSKYNNYATYYADSVKGRFTISRDDSKNTLYLQMNSLRAEDTAVYYCVRHGNFGDSYVSWFAYWGQGTLVTVSSASTKGPSVFPLAPSSKSTSGGTAALGCLVKDYFPEPVTVSWNSGALTSGVHTFPAVLQSSGLYSLSSVVTVPSSSLGTQTYICNVNHKPSNTKVDKKVEPKSCGGGGSDIQMTQSPSSLSASVGDRVTITCRSSQSVYNNLLGWYQQKPGKAPKLLIYSASTLASGVPSRFSGSGSGTDFTLTISSLQPEDSATYYCQGTYYTGDWYYPFGCGTKVEIKGGGGSGGGGSGGGGSGGGGSQVQLVESGGGSVQPGRSLRLSCAASGFDFSTYGVSWVRQAPGKCLEWIGYIDPVYGSTHYADSVKGRFTISRDNSKNTLYLQMNSLRAEDTASYYCVRDLYAGSSGYYVIYSLWGQGTSVTVSS light: QAVVTQEPSLTVSPGGTVTLTCGSSTGAVTTSNYANWVQQKPGKSPRGLIGGTNKRAPGVPARFSGSLLGGKAALTISGAQPEDEADYYCALWYSNHWVFGGGTKLTVLGQPKAAPSVTLFPPSSEELQANKATLVCLISDFYPGAVTVAWKADSSPVKAGVETTTPSKQSNNKYAASSYLSLTPEQWKSHRSYSCQVTHEGSTVEKTVAPTECS
